Test results as given in patent US12304939B2, “EGFR and C-met fibronectin type III domain binding molecules” (Janssen Biotech, Inc., priority 2012, dated 2025).
Where a chain is given by its changes, count along the chain named. In names and notes the source's numbering stands.

B1: A3 F36S: serine mutant of A3 c-Met domain in ECB15 context, SEQ ID NO: 218 (protein)
chain: LPAPKNLVVSRVTEDSARLSWTAPDAAFDSFWIRYSEFLGSGEAIVLTVPGSERSYDLTGLKPGTEYVVNIMGVKGGKISPPLSAIFTT
modifications: c-Met binding FN3 domain
B2: A3 L39S: serine mutant of A3 c-Met domain in ECB15 context, SEQ ID NO: 214 (protein)
chain: B1 chain with S36F, L39S
modifications: c-Met binding FN3 domain
B3: A3 F38S: serine mutant of A3 c-Met domain in ECB15 context, SEQ ID NO: 222 (protein)
chain: B1 chain with S36F, F38S
modifications: c-Met binding FN3 domain
B4: A3 V68S: serine mutant of A3 c-Met domain in ECB15 context, SEQ ID NO: 215 (protein)
chain: B1 chain with S36F, V68S
modifications: c-Met binding FN3 domain
B5: A3 P81S: serine mutant of A3 c-Met domain in ECB15 context, SEQ ID NO: 217 (protein)
chain: B1 chain with S36F, P81S
modifications: c-Met binding FN3 domain
B6: A3 W32S: serine mutant of A3 c-Met domain in ECB15 context, SEQ ID NO: 219 (protein)
chain: B1 chain with W32S, S36F
modifications: c-Met binding FN3 domain
B7: A3 K78S: serine mutant of A3 c-Met domain in ECB15 context, SEQ ID NO: 212 (protein)
chain: B1 chain with S36F, K78S
modifications: c-Met binding FN3 domain
B8: A3 N70S: serine mutant of A3 c-Met domain in ECB15 context, SEQ ID NO: 216 (protein)
chain: B1 chain with S36F, N70S
modifications: c-Met binding FN3 domain
B9: A3 G40S: serine mutant of A3 c-Met domain in ECB15 context, SEQ ID NO: 213 (protein)
chain: B1 chain with S36F, G40S
modifications: c-Met binding FN3 domain
B10: A3 M72S: serine mutant of A3 c-Met domain in ECB15 context, SEQ ID NO: 220 (protein)
chain: B1 chain with S36F, M72S
modifications: c-Met binding FN3 domain
B11: A3 R34S: serine mutant of A3 c-Met domain in ECB15 context, SEQ ID NO: 221 (protein)
chain: B1 chain with R34S, S36F
modifications: c-Met binding FN3 domain
B12: A3 I79S: serine mutant of A3 c-Met domain in ECB15 context, SEQ ID NO: 223 (protein)
chain: B1 chain with S36F, I79S
modifications: c-Met binding FN3 domain
B13: P114AR7P93-H9: c-Met-binding FN3 domain, SEQ ID NO: 40 (protein)
chain: B1 chain with S36F, N70Q, M72I, K78H, P81L
modifications: c-Met binding FN3 domain
B14: P114AR7P94-E5: c-Met-binding FN3 domain, SEQ ID NO: 42 (protein)
chain: B1 chain with S36F, V68A, K78R, I79V, P81V
modifications: c-Met binding FN3 domain
B15: P114AR7P95-H8: c-Met-binding FN3 domain, SEQ ID NO: 49 (protein)
chain: B1 chain with S36F, L39V, G40S, S41K, K78S
modifications: c-Met binding FN3 domain
B16: P114AR7P93-G8: c-Met-binding FN3 domain, SEQ ID NO: 39 (protein)
chain: B1 chain with S36F, G60D, V68G, N70T, M72N, K78R, I79V, P81T
modifications: c-Met binding FN3 domain
B17: P114AR5P74-A5: c-Met-binding FN3 domain, SEQ ID NO: 32 (protein)
chain: B1 chain with S36D, F38V, L39V, G40V, S41G, V68Y, M72L, K78S, P81V
modifications: c-Met binding FN3 domain
B18: P114AR7P95-F10: c-Met-binding FN3 domain, SEQ ID NO: 47 (protein)
chain: B1 chain with S36F, L39T, G40T, S41A, K78S
modifications: c-Met binding FN3 domain
B19: P114AR7P92-F6: c-Met-binding FN3 domain, SEQ ID NO: 35 (protein)
chain: B1 chain with S36F, M72L, K78G, I79L, P81V
modifications: c-Met binding FN3 domain
B20: P114AR7P92-H5: c-Met-binding FN3 domain, SEQ ID NO: 37 (protein)
chain: B1 chain with S36L, G40L, S41G, N70Q, K78T, I79V
modifications: c-Met binding FN3 domain
B21: P114AR7P95-D4: c-Met-binding FN3 domain, SEQ ID NO: 45 (protein)
chain: B1 chain with S36F, N70Q, M72L, K78Y, P81I
modifications: c-Met binding FN3 domain
B22: P114AR7P95-G7: c-Met-binding FN3 domain, SEQ ID NO: 48 (protein)
chain: B1 chain with S36F, F38L, G40S, S41T, K78S
modifications: c-Met binding FN3 domain
B23: P114AR7P92-G8: c-Met-binding FN3 domain, SEQ ID NO: 36 (protein)
chain: B1 chain with W32V, S36F, N70Q, M72L, K78Y, P81I
modifications: c-Met binding FN3 domain
B24: P114AR7P94-A3: c-Met-binding FN3 domain, SEQ ID NO: 41 (protein)
chain: B1 chain with S36F
modifications: c-Met binding FN3 domain
B25: ECB94: bispecific SEQ ID NO: 61: P54AR4-83v22, (AP)5, P114AR7P94-A3v22 (protein)
chain: MLPAPKNLVVSEVTEDSARLSWDDPWAFYESFLIQYQESEKVGEAIVLTVPGSERSYDLTGLKPGTEYTVSIYGVHNVYKDTNIRGLPLSAIFTTAPAPAPAPAPLPAPKNLVVSRVTEDSARLSWTAPDAAFDSFWIRYFEFLGSGEAIVLTVPGSERSYDLTGLKPGTEYVVNILGVKGGKISPPLSAIFTT
modifications: bispecific EGFR/cMet binding molecule
B26: ECB95: bispecific SEQ ID NO: 62: P54AR4-83v22, (AP)5, P114AR9P121-A6v2 (protein)
chain: B25 chain with L144V, K183S
modifications: bispecific EGFR/cMet binding molecule
B27: ECB96: bispecific SEQ ID NO: 63: P54AR4-83v22, (AP)5, P114AR9P122-A7v2 (protein)
chain: B25 chain with L144V, G145S, S146K, E148D, K183S
modifications: bispecific EGFR/cMet binding molecule

target: T1, c-Met-Fc fusion protein (Homo sapiens, UniProt P08581); test: c-Met-Fc affinity by surface plasmon resonance (Proteon); assay type: binding; settings: not given
T1 construct: recombinant EGFR and/or c-Met extracellular domain
T1 sequence (P08581 25-932 limits assumed): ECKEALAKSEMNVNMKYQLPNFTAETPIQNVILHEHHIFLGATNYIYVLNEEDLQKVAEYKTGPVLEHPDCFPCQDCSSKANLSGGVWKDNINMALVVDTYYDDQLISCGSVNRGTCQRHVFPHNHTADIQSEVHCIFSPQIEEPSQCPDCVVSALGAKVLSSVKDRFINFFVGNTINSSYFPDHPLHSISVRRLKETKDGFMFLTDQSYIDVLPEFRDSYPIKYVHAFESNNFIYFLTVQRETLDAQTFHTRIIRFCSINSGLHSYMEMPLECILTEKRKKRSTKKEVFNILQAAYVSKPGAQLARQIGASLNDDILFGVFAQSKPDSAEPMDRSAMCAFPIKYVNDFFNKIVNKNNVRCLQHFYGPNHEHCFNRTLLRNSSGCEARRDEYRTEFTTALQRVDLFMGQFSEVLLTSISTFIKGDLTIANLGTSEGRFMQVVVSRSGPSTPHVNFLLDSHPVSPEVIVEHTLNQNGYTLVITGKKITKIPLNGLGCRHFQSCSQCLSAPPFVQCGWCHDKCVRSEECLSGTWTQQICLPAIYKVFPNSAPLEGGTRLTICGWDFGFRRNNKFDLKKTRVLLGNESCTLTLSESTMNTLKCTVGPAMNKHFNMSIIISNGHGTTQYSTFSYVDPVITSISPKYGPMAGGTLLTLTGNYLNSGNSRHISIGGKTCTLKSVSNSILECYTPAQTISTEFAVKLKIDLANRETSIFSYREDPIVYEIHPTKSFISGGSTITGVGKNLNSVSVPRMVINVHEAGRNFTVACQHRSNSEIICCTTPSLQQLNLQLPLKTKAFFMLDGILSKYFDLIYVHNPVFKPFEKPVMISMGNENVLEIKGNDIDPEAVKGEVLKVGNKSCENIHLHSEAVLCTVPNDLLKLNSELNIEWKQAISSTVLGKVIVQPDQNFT

Fold Change of KD compared to parent	Molecule
68	B1
6.75	B2
1792.5	B3
9	B4
4.25	B5
74.5	B6
0.75	B7
14.75	B8
4.25	B9

same assay, conditions: SPR, serine mutants in ECB15

binding to c-Met (in words)	Molecule
No binding was measurable	B10
No binding was measurable	B11
No binding was measurable	B12

same assay, conditions: listed as F38S

Fold Change of KD compared to parent	Molecule
greater than 100	B3

same assay, conditions: serine mutants of A3 in the context of ECB15

ka [M⁻¹ s⁻¹]	kd [s⁻¹]	Molecule
188000	0.00512	B1
475000	0.00127	B2
45100	0.0323	B3
329000	0.0012	B4
321000	0.000536	B5
289000	0.0086	B6
440000	0.00015	B7
425000	0.00249	B8
185000	0.00032	B9

same assay, conditions: serine mutants of A3 in the context of ECB15; read-out: KD

Kd [nM]	Molecule
27.2	B1
2.7	B2
717	B3
3.6	B4
1.7	B5
29.8	B6
0.3	B7
5.9	B8
1.7	B9

tested on: not listed separately; test: Differential scanning calorimetry in PBS (thermal stability); assay type: physicochemical; settings: DSC in PBS, c-Met-binding FN3 domains

Molecule	Thermal Stability (Tm) [C]
B13	88.2
B14	80
B15	83
B16	76.8
B17	74.1
B18	85.2
B19	76.8
B20	87
B21	85.3
B22	87.2
B23	90.9
B24	86.2

tested on: H292 cells; test: Inhibition of proliferation of HGF-induced H292 cells; assay type: cell-based, human; settings: bispecific molecules
From the text: Inhibition of tumor cell proliferation can be measured using standard methods and methods described herein.
The proliferation assay was completed using different combinations EGFR and c-Met binding FN3 domains either as a mixture or linked in a bispecific format. […] This confirmed that the avidity effect observed at the level of the receptors (FIG. 4 and FIG. 5) translates into an improvement in inhibiting cell signaling (Table 12) and cell proliferation (Table 13).
Inhibition of human tumor cell growth was assessed in standard attachment culture as described in Examples 3 or 6, or in low attachment conditions.

IC50 [nM]	Molecule
29.6	B25
383	B26
9480	B27
